Reference: patent US20240398911A1

Columns and labels:
Assay in all cases: BLI, sACE22-IgG1 immobilized, RBD-8h analyte
[1] = molecular target: 8his-tagged RBD of the S protein of bat coronavirus isolate LYRa11 (bat coronavirus LYRa11)
[2] = molecular target: 8his-tagged RBD of the S protein of bat coronavirus isolate Rs4231 (bat coronavirus Rs4231)
[3] = molecular target: 8his-tagged RBD of the S protein of bat coronavirus isolate Rs7327 (bat coronavirus Rs7327)
[4] = molecular target: 8his-tagged RBD of the S protein of bat coronavirus isolate Rs4084 (bat coronavirus Rs4084)
[5] = molecular target: 8his-tagged RBD of the S protein of bat coronavirus isolate RsSHC014 (bat coronavirus RsSHC014)

Substance: wild type dimeric sACE22 (a.a. S19-G732) fused to the Fc of human IgG1 (from UniProt Q9BYF1 19-732) (Fc fusion)
- Kd [1]: 0.091 µM
- koff [1]: 0.079 s⁻¹
- kon [1]: 870000 M⁻¹ s⁻¹
- Kd [2]: 0.069 µM
- koff [2]: 0.022 s⁻¹
- kon [2]: 320000 M⁻¹ s⁻¹
- Kd [3]: 0.063 µM
- koff [3]: 0.04 s⁻¹
- kon [3]: 640000 M⁻¹ s⁻¹
- Kd [4]: 0.085 µM
- koff [4]: 0.025 s⁻¹
- kon [4]: 290000 M⁻¹ s⁻¹
- Kd [5]: 0.029 µM
- koff [5]: 0.026 s⁻¹
- kon [5]: 880000 M⁻¹ s⁻¹
